Experimental data: IntAct's records for PubMed 28335037

B1: E3 ubiquitin-protein ligase LRSAM1 (Homo sapiens), Q6UWE0 (parent)
chain: MPLFFRKRKPSEEARKRLEYQMCLAKEAGADDILDISKCELSEIPFGAFATCKVLQKKVLIVHTNHLTSLLPKSCSLLSLATIKVLDLHDNQLTALPDDLGQLTALQVLNVERNQLMQLPRSIGNLTQLQTLNVKDNKLKELPDTVGELRSLRTLNISGNEIQRLPQMLAHVRTLEMLSLDASAMVYPPREVCGAGTAAILQFLCKESGLEYYPPSQYLLPILEQDGIENSRDSPDGPTDRFSREELEWQNRFSDYEKRKEQKMLEKLEFERRLELGQREHTQLLQQSSSQKDEILQTVKEEQSRLEQGLSEHQRHLNAERQRLQEQLKQTEQNISSRIQKLLQDNQRQKKSSEILKSLENERIRMEQLMSITQEETESLRRRDVASAMQQMLTESCKNRLIQMAYESQRQNLVQQACSSMAEMDERFQQILSWQQMDQNKAISQILQESAMQKAAFEALQVKKDLMHRQIRSQIKLIETELLQLTQLELKRKSLDTESLQEMISEQRWALSSLLQQLLKEKQQREEELREILTELEAKSETRQENYWLIQYQRLLNQKPLSLKLQEEGMERQLVALLEELSAEHYLPIFAHHRLSLDLLSQMSPGDLAKVGVSEAGLQHEILRRVQELLDAARIQPELKPPMGEVVTPTAPQEPPESVRPSAPPAELEVQASECVVCLEREAQMIFLNCGHVCCCQQCCQPLRTCPLCRQDIAQRLRIYHSS

Variants of: B1
Details: with ube2b_rabit UBE2B

| Variant | effect of a mutation on the interaction |
| --- | --- |
| Q573K | with no effect |
| P707L | disrupting interaction strength |
| C694Y | disrupting interaction strength |
